Measurements taken from patent US20190367592A1.

Biological target: monomeric cynomolgus monkey Tau (cynomolgus monkey)
Assay: SPR, hIgG captured, cyno Tau monomer analyte

| Kd [nM] | koff [s⁻¹] | kon [M⁻¹ s⁻¹] | Binder |
| --- | --- | --- | --- |
| 0.7 | 0.001 | 1.7e+06 | hu37D3.v28.A4 (antibody, V domains shown) VH: EVQLVESGGGLVQPGGSLRLSCAASGLIFRSYGMSWVRQAPGKGLEWVATINSGGTYTYYPDSVKGRFTISRDNSKNTLYLQMNSLRAEDTAVYYCANSYSGAMDYWGQGTLVTVSS VL: DDVLTQTPLSLPVTPGQPASISCRSSQSIVHSNGNTYLEWYLQKPGQSPQLLIYKVSNRFSGVPDRFSGSGSGTDFTLKISRVEAEDVGVYYCFQGSLVPWTFGQGTKVEIK |
| 0.6 | 0.001 | 1.5e+06 | hu37D3-H9.v5 (antibody, V domains shown) VH: EVQLVESGGGLVQPGGSLRLSCAASGLIFRSYGMSWVRQAPGKGLEWVATINSGGTYTYYPDSVKGRFTISRDNSKNTLYLQMNSLRAEDTAVYYCANSYSGAMDYWGQGTLVTVSS VL: EDVLTQTPLSLPVTPGQPASISCRSSQSIVHSNGNTYFEWYLQKPGQSPQLLIYKVSNRFSGVPDRFSGSGSGTDFTLKISRVEAEDVGVYYCFQGSLVPWTFGQGTKVEIK |
| 0.8 | 0.001 | 2e+06 | hu37D3-H9.v1 (antibody, V domains shown) VH: EVQLVESGGGLVQPGGSLRLSCAASGLIFRSYGMSWVRQAPGKGLEWVATINSGGTYTYYPDSVKGRFTISRDNSKNTLYLQMNSLRAEDTAVYYCANSYSGAMDYWGQGTLVTVSS VL: EDQLTQSPSSLSASVGDRVTITCRSSQSIVHSNGNTYFEWYQQKPGKSPKLLIYKVSNRFSGVPSRFSGSGSGTDFTLTISSLQPEDFATYYCFQGSLVPWTFGQGTKVEIK |
